Source: paper PMC11574045, “A cofactor-induced repressive type of transcription factor condensation can be induced by synthetic peptides to suppress tumorigenesis” (The EMBO Journal, 2024)

System: HEK293FT cells transfected with TF library
Test: Screening of TF condensates based on fluorescent puncta
Type: cell-based
Details: Figure 1B numerical data; TF library screen, one value per transcriptional factor
Description: TF plasmids were automatically added to black-walled 384-well plates at 80 ng per well to reach a final concentration of 1.6 μg/ml. Polyethylenimine (PEI, Sigma) was then added to the plasmid-loaded plates at 240 ng per well (4.8 μg/ml). Subsequently, HEK293FT cells were seeded into the plate at 2000 cells per well. After 60 h, cells were cultured in medium with or without glucose for 12 h, and then fixed with 4% paraformaldehyde (PFA) at room temperature for 30 min. After three washes with PBS, fixed cells were permeabilized with 0.05% Triton X-100 for 15 min. Thereafter, cells were blocked with 5% BSA for 1 h, and then incubated overnight with anti-Flag (Sigma F3165, 1:200) and anti-GAL4 (Abbkine ABP57232, 1:200) primary antibodies at 4 °C. The cells were then gently washed with PBS, followed by being incubated with Alexa Fluor Plus 488 goat anti-mouse IgG secondary antibody (Thermo A32723, 1:400) or Alexa Fluor Plus 488 goat anti-rabbit IgG secondary antibody (Thermo A32731, 1:400) for 1 h. The plates were kept at 4 °C in the dark before being analyzed using an Opera System (Perkin Elmer). Fifty random fields per well were scanned and analyzed using the Columbus Plus Image Data Storage and Analysis System (Perkin Elmer).

Row | Molecule | Z score of condensed fraction
1 | FOSL1 (protein, UniProt P15407 1-271, looked up) Fos-related antigen 1: MFRDFGEPGPSSGNGGGYGGPAQPPAAAQAAQQKFHLVPSINTMSGSQELQWMVQPHFLGPSSYPRPLTYPQYSPPQPRPGVIRALGPPPGVRRRPCEQISPEEEERRRVRRERNKLAAAKCRNRRKELTDFLQAETDKLEDEKSGLQREIEELQKQKERLELVLEAHRPICKIPEGAKEGDTGSTSGTSSPPAPCRPVPCISLSPGPVLEPEALHTPTLMTTPSLTPFTPSLVFTYPSTPEPCASAHRKSSSSSGDPSSDPLGSPTLLAL | -0.3444
2 | FLI1 (protein, UniProt Q01543 1-452, looked up) Friend leukemia integration 1 …: MDGTIKEALSVVSDDQSLFDSAYGAAAHLPKADMTASGSPDYGQPHKINPLPPQQEWINQPVRVNVKREYDHMNGSRESPVDCSVSKCSKLVGGGESNPMNYNSYMDEKNGPPPPNMTTNERRVIVPADPTLWTQEHVRQWLEWAIKEYSLMEIDTSFFQNMDGKELCKMNKEDFLRATTLYNTEVLLSHLSYLRESSLLAYNTTSHTDQSSRLSVKEDPSYDSVRRGAWGNNMNSGLNKSPPLGGAQTISKNTEQRPQPDPYQILGPTSSRLANPGSGQIQLWQFLLELLSDSANASCITWEGTNGEFKMTDPDEVARRWGERKSKPNMNYDKLSRALRYYYDKNIMTKVHGKRYAYKFDFHGIAQALQPHPTESSMYKYPSDISYMPSYHAHQQKVNFVPPHPSSMPVTSSSFFGAASQYWTSPTGGIYPNPNVPRHPNTHVPSHLGSYY | 0.3939
3 | FERD3L (protein, UniProt Q96RJ6 1-166, looked up) Fer3-like protein: MAAYPESCVDTTVLDFVADLSLASPRRPLLCDFAPGVSLGDPALALREGRPRRMARFEEGDPEEEECEVDQGDGEEEEEEERGRGVSLLGRPKRKRVITYAQRQAANIRERKRMFNLNEAFDQLRRKVPTFAYEKRLSRIETLRLAIVYISFMTELLESCEKKESG | 0.6489
4 | FOSB (protein, UniProt P53539 1-338, looked up) Protein FosB: MFQAFPGDYDSGSRCSSSPSAESQYLSSVDSFGSPPTAAASQECAGLGEMPGSFVPTVTAITTSQDLQWLVQPTLISSMAQSQGQPLASQPPVVDPYDMPGTSYSTPGMSGYSSGGASGSGGPSTSGTTSGPGPARPARARPRRPREETLTPEEEEKRRVRRERNKLAAAKCRNRRRELTDRLQAETDQLEEEKAELESEIAELQKEKERLEFVLVAHKPGCKIPYEEGPGPGPLAEVRDLPGSAPAKEDGFSWLLPPPPPPPLPFQTSQDAPPNLTASLFTHSEVQVLGDPFPVVNPSYTSSFVLTCPEVSAFAGAQRTSGSDQPSDPLNSPSLLAL | 1.202
5 | AFF3 (protein, UniProt P51826 1-1226, looked up) AF4/FMR2 family member 3: MDSFDLALLQEWDLESLCVYEPDRNALRRKERERRNQETQQDDGTFNSSYSLFSEPYKTNKGDELSNRIQNTLGNYDEMKDFLTDRSNQSHLVGVPKPGVPQTPVNKIDEHFVADSRAQNQPSSICSTTTSTPAAVPVQQSKRGTMGWQKAGHPPSDGQQRATQQGSLRTLLGDGVGRQQPRAKQVCNVEVGLQTQERPPAMAAKHSSSGHCVQNFPPSLASKPSLVQQKPTAYVRPMDGQDQAPDESPKLKSSSETSVHCTSYRGVPASKPEPARAKAKLSKFSIPKQGEESRSGETNSCVEEIIREMTWLPPLSAIQAPGKVEPTKFPFPNKDSQLVSSGHNNPKKGDAEPESPDNGTSNTSMLEDDLKLSSDEEENEQQAAQRTALRALSDSAVVQQPNCRTSVPSSKGSSSSSSSGSSSSSSDSESSSGSDSETESSSSESEGSKPPHFSSPEAEPASSNKWQLDKWLNKVNPHKPPILIQNESHGSESNQYYNPVKEDVQDCGKVPDVCQPSLREKEIKSTCKEEQRPRTANKAPGSKGVKQKSPPAAVAVAVSAAAPPPAVPCAPAENAPAPARRSAGKKPTRRTERTSAGDGANCHRPEEPAAADALGTSVVVPPEPTKTRPCGNNRASHRKELRSSVTCEKRRTRGLSRIVPKSKEFIETESSSSSSSSDSDLESEQEEYPLSKAQTVAASASSGNDQRLKEAAANGGSGPRAPVGSINARTTSDIAKELEEQFYTLVPFGRNELLSPLKDSDEIRSLWVKIDLTLLSRIPEHLPQEPGVLSAPATKDSESAPPSHTSDTPAEKALPKSKRKRKCDNEDDYREIKKSQGEKDSSSRLATSTSNTLSANHCNMNINSVAIPINKNEKMLRSPISPLSDASKHKYTSEDLTSSSRPNGNSLFTSASSSKKPKADSQLQPHGGDLTKAAHNNSENIPLHKSRPQTKPWSPGSNGHRDCKRQKLVFDDMPRSADYFMQEAKRMKHKADAMVEKFGKALNYAEAALSFIECGNAMEQGPMESKSPYTMYSETVELIRYAMRLKTHSGPNATPEDKQLAALCYRCLALLYWRMFRLKRDHAVKYSKALIDYFKNSSKAAQAPSPWGASGKSTGTPSPMSPNPSPASSVGSQGSLSNASALSPSTIVSIPQRIHQMAANHVSITNSILHSYDYWEMADNLAKENREFFNDLDLLMGPVTLHSSMEHLVQYSQQGLHWLRNSAHLS | -0.8104
6 | EZH1 (protein, UniProt Q92800 1-747, looked up) Histone-lysine …: MEIPNPPTSKCITYWKRKVKSEYMRLRQLKRLQANMGAKALYVANFAKVQEKTQILNEEWKKLRVQPVQSMKPVSGHPFLKKCTIESIFPGFASQHMLMRSLNTVALVPIMYSWSPLQQNFMVEDETVLCNIPYMGDEVKEEDETFIEELINNYDGKVHGEEEMIPGSVLISDAVFLELVDALNQYSDEEEEGHNDTSDGKQDDSKEDLPVTRKRKRHAIEGNKKSSKKQFPNDMIFSAIASMFPENGVPDDMKERYRELTEMSDPNALPPQCTPNIDGPNAKSVQREQSLHSFHTLFCRRCFKYDCFLHPFHATPNVYKRKNKEIKIEPEPCGTDCFLLLEGAKEYAMLHNPRSKCSGRRRRRHHIVSASCSNASASAVAETKEGDSDRDTGNDWASSSSEANSRCQTPTKQKASPAPPQLCVVEAPSEPVEWTGAEESLFRVFHGTYFNNFCSIARLLGTKTCKQVFQFAVKESLILKLPTDELMNPSQKKKRKHRLWAAHCRKIQLKKDNSSTQVYNYQPCDHPDRPCDSTCPCIMTQNFCEKFCQCNPDCQNRFPGCRCKTQCNTKQCPCYLAVRECDPDLCLTCGASEHWDCKVVSCKNCSIQRGLKKHLLLAPSDVAGWGTFIKESVQKNEFISEYCGELISQDEADRRGKVYDKYMSSFLFNLNNDFVVDATRKGNKIRFANHSVNPNCYAKVVMVNGDHRIGIFAKRAIQAGEELFFDYRYSQADALKYVGIERETDVL | -2.133
7 | ETV1 (protein, UniProt P50549 1-477, looked up) ETS translocation variant 1: MDGFYDQQVPYMVTNSQRGRNCNEKPTNVRKRKFINRDLAHDSEELFQDLSQLQETWLAEAQVPDNDEQFVPDYQAESLAFHGLPLKIKKEPHSPCSEISSACSQEQPFKFSYGEKCLYNVSAYDQKPQVGMRPSNPPTPSSTPVSPLHHASPNSTHTPKPDRAFPAHLPPSQSIPDSSYPMDHRFRRQLSEPCNSFPPLPTMPREGRPMYQRQMSEPNIPFPPQGFKQEYHDPVYEHNTMVGSAASQSFPPPLMIKQEPRDFAYDSEVPSCHSIYMRQEGFLAHPSRTEGCMFEKGPRQFYDDTCVVPEKFDGDIKQEPGMYREGPTYQRRGSLQLWQFLVALLDDPSNSHFIAWTGRGMEFKLIEPEEVARRWGIQKNRPAMNYDKLSRSLRYYYEKGIMQKVAGERYVYKFVCDPEALFSMAFPDNQRPLLKTDMERHINEEDTVPLSHFDESMAYMPEGGCCNPHPYNEGYVY | -0.2404
8 | ETV2 (protein, UniProt P41163 1-335, looked up) ETS translocation variant 2: MDLWNWDEASLQEVPPGDKLTGLGAEFGFYFPEVALQEDTPITPMNVEGCWKGFPELDWNPALPHEDVPFQAEPVAHPLPWSRDWTDLGCNTSDPWSCASQTPGPAPPGTSPSPFVGFEGATGQNPATSAGGVPSWSHPPAAWSTTSWDCSVGPSGATYWDNGLGGEAHEDYKMSWGGSAGSDYTTTWNTGLQDCSIPFEGHQSPAFTTPSKSNKQSDRATLTRYSKTNHRGPIQLWQFLLELLHDGARSSCIRWTGNSREFQLCDPKEVARLWGERKRKPGMNYEKLSRGLRYYYRRDIVLKSGGRKYTYRFGGRVPVLAYQDDMGHLPGAEGQ | 0.6041
9 | ETV7 (protein, UniProt Q9Y603 1-341, looked up) Transcription factor ETV7: MQEGELAISPISPVAAMPPLGTHVQARCEAQINLLGEGGICKLPGRLRIQPALWSREDVLHWLRWAEQEYSLPCTAEHGFEMNGRALCILTKDDFRHRAPSSGDVLYELLQYIKTQRRALVCGPFFGGIFRLKTPTQHSPVPPEEVTGPSQMDTRRGHLLQPPDPGLTSNFGHLDDPGLARWTPGKEESLNLCHCAELGCRTQGVCSFPAMPQAPIDGRIADCRLLWDYVYQLLLDTRYEPYIKWEDKDAKIFRVVDPNGLARLWGNHKNRVNMTYEKMSRALRHYYKLNIIKKEPGQKLLFRFLKTPGKMVQDKHSHLEPLESQEQDRIEFKDKRPEISP | -0.026
10 | FHL2 (protein, UniProt Q14192 1-279, looked up) Four and a half LIM domains …: MTERFDCHHCNESLFGKKYILREESPYCVVCFETLFANTCEECGKPIGCDCKDLSYKDRHWHEACFHCSQCRNSLVDKPFAAKEDQLLCTDCYSNEYSSKCQECKKTIMPGTRKMEYKGSSWHETCFICHRCQQPIGTKSFIPKDNQNFCVPCYEKQHAMQCVQCKKPITTGGVTYREQPWHKECFVCTACRKQLSGQRFTARDDFAYCLNCFCDLYAKKCAGCTNPISGLGGTKYISFEERQWHNDCFNCKKCSLSLVGRGFLTERDDILCPDCGKDI | 0.8678
11 | ESRRA (protein, UniProt P11474 1-423, looked up) Steroid hormone receptor ERR1: MSSQVVGIEPLYIKAEPASPDSPKGSSETETEPPVALAPGPAPTRCLPGHKEEEDGEGAGPGEQGGGKLVLSSLPKRLCLVCGDVASGYHYGVASCEACKAFFKRTIQGSIEYSCPASNECEITKRRRKACQACRFTKCLRVGMLKEGVRLDRVRGGRQKYKRRPEVDPLPFPGPFPAGPLAVAGGPRKTAAPVNALVSHLLVVEPEKLYAMPDPAGPDGHLPAVATLCDLFDREIVVTISWAKSIPGFSSLSLSDQMSVLQSVWMEVLVLGVAQRSLPLQDELAFAEDLVLDEEGARAAGLGELGAALLQLVRRLQALRLEREEYVLLKALALANSDSVHIEDAEAVEQLREALHEALLEYEAGRAGPGGGAERRRAGRLLLTLPLLRQTAGKVLAHFYGVKLEGKVPMHKLFLEMLEAMMD | 0.7125
